Target: T1, Neuronal calcium sensor-1 (NCS-1), Rattus norvegicus, wild type (Rattus norvegicus, UniProt P62168 1-190)
T1 construct: NCS-1, Rattus norvegicus; cDNA GenBank L27421; sub-cloned into pET-M11; 15N or 15N,13C labelled for NMR; Monomeric by SEC-MALS; also called wild type NCS-1; source: E. coli BL21 (DE3), purified (Phenyl FF hydrophobic column, TEV cleavage, Superdex 75); not shown: His tag, N-terminal, cleaved
Experiment: other fluorescence titration; intrinsic tryptophan fluorescence of 1 µM NCS-1 (excitation 280 nm, emission 290-410 nm), peptide added stepwise; 20 mM HEPES, 139 mM NaCl, 2 mM ATP, 5 mM EGTA, 5 mM nitrilotriacetic acid, pH 7.4, 1 µM free Ca2+; room temperature; logistic fit
Conditions: both partners purified

T1 sequence (P62168 whole entry): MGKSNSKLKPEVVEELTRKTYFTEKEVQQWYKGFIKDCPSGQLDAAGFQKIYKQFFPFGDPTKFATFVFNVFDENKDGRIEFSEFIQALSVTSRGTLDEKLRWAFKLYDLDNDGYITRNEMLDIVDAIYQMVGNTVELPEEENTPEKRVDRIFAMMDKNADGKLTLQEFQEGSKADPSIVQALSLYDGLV

B1: D2 peptide, residues 428-443 of the human dopamine D2 receptor (peptide)
peptide: TFNIEFRKAFLKILHC
notes: dopamine D2 receptor, human, residues 428-443, cytoplasmic C-terminal tail; Dissolved first in a minimal amount of DMSO; also called D2 (428-443); dopamine D2 receptor C-terminus; source: synthetic peptide, bought: Peptide Protein Research Ltd
- EC50: 14.3 µM
- stoichiometry N: 2 peptide per NCS-1

— paper PMC3218054, “Characterisation of the Interaction of the C-Terminus of the Dopamine D2 Receptor with Neuronal Calcium Sensor-1” (PLoS ONE, 2011)
